Where a chain is given by its changes, count along the chain named. Read-outs that look alike come from different tables or passages of the source. One block for each binder: values may come before it.
Columns and labels:
[1] = biological target: T1, human IL-13 (recombinant E. coli-expressed) (human, UniProt P35225 35-146); experiment: ProteOn XPR36 SPR, mAb (supernatant) captured on anti-human IgG, IL13 analyte, 1:1 fit
T1 construct: also called hIL-13
Procedure: The initial screen of CDRH3 mutants was carried out on the ProteOn XPR36 (Biorad). […] 3M MgCl₂ was used to regenerate the capture surface, removing the bound CDRH3 mutant antibodies ready for another cycle of capture and analyte injection. The data was fitted to the 1:1 model using the software inherent to the machine.

[2] = biological target: T1, human IL-13 (recombinant E. …); experiment: Biacore T100 SPR, mAb (supernatant) captured on anti-human IgG, IL13 analyte, 1:1 fit
From the text: (§1) Table 1 details the overall affinities (equilibrium dissociation constant KD) for the selected constructs from the ProteOn screen and the T100 run

[3] = biological target: T1, human IL-13 (recombinant E. …); experiment: Biacore T100 SPR, purified mAb captured on anti-human IgG, IL13 analyte, 1:1 fit
From the text: as §1

[4] = biological target: T1, human IL-13 (recombinant E. …); experiment: as above; remark: listed apart in the source
From the text: as §1

[5] = biological target: T1, human IL-13 (recombinant E. …); experiment: cell-based or functional assay
[6] = biological target: T2, cyno IL-13 (recombinant E. coli-expressed) (cynomolgus, UniProt Q0PW92 21-132); experiment: Biacore T100 SPR, Protein A capture (CM5), cyno IL13 analyte, 1:1 fit; 'Impossible off-rates'
T2 construct: also called cynomolgus IL-13
Procedure: (§2) Protein A was immobilised on a CM5 chip by primary amine coupling; this surface was used as a capture surface for the antibody molecules to be tested. […] All binding curves were double referenced with a 0 nM injection (i.e. buffer alone).
(§3) Regeneration of the Protein A surface was with 50 mM NaOH. The assay was run at 25° C. using HBS-EP as running buffer. The data was fitted to 1:1 model inherent to the Biacore T100 analysis software.

[7] = biological target: T1, human IL-13 (recombinant E. …); experiment: Biacore T100 SPR, Protein A capture (CM5), human IL13 analyte, 1:1 fit
Procedure: as §2, §3

[8] = biological target: T3, human IL-4 (recombinant E. coli-expressed) (human, UniProt P05112 25-153); experiment: Biacore T100 SPR, Protein A capture (CM5), human IL4 analyte, 1:1 fit
T3 sequence (looked up): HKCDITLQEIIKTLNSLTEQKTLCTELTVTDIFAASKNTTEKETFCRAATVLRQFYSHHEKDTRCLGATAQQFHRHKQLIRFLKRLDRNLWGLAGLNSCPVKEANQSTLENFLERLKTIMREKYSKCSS
Procedure: Protein A was immobilised on a CM5 chip by primary amine coupling; this surface was used as a capture surface for the antibody molecules to be tested.
All binding curves were double referenced with a 0 nM injection (i.e. buffer alone). Regeneration of the Protein A surface was with 50 mM NaOH. The assay was run at 25° C. using HBS-EP as running buffer. The data was fitted to 1:1 model inherent to the Biacore T100 analysis software.

[9] = biological target: T3, human IL-4 (recombinant E. …); experiment: as above; remark: listed apart in the source
Procedure: Purified mAbs and mAbdAb constructs were tested in a BIAcore assay to determine whether the mutation of position 89 had any effect on the binding of the dAb to IL-4.
Protein A was immobilised on a CM5 chip by primary amine coupling; this surface was used as a capture surface for the antibody molecules to be tested. […] Regeneration of the […] surface was achieved using 50 mM NaOH. The assay was run at 25° C. using HBS-EP as running buffer. The data was fitted to 1:1 model inherent to the Biacore T100 analysis software.

T1 sequence (P35225 other isoform, or with tags, fused parts or gaps limits assumed): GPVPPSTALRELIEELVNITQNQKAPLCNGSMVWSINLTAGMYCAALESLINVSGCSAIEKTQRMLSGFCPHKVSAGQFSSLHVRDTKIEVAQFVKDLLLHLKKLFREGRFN

- Kd [1]: 0.873 nM
- Kd [2]: 0.779 nM
B1: A1D98GluL1 (antibody, human IgG1, kappa, V domains shown)
VH: QVQLVQSGAEVKKPGSSVKVSCKASGFYIKDTYMHWVRQAPGQGLEWMGTIDPANGNTKYVPKFQGRVTITADESTSTAYMELSSLRSEDTAVYYCARSIYEDYHYDDYYAMDYWGQGTLVTVSS
VL: DIVMTQSPLSLPVTPGEPASISCRSSQNIVHINGNTYLEWYLQKPGQSPRLLIYKISDRFSGVPDRFSGSGSGTDFTLKISRVEADDVGIYYCFQGSHVPWTFGQGTKLEIKR
notes: CDRH3 variant of A1L1

- Kd [1]: 0.131 nM
- Kd [2]: 0.174 nM
B2: A1H100A SerL1 (antibody, human IgG1, kappa, V domains shown)
VH: B1 VH with E102D, H105S
VL: B1 VL
notes: CDRH3 variant of A1L1

- Kd [1]: 0.395 nM
- Kd [2]: 0.696 nM
B3: A1I96ValL1 (antibody, human IgG1, kappa, V domains shown)
VH: B1 VH with I100V, E102D
VL: B1 VL
notes: CDRH3 variant of A1L1

- Kd [1]: 0.068 nM
- Kd [3]: 0.063 nM
- koff [3]: 0.000163 s⁻¹
- kon [3]: 2.57e+06 M⁻¹ s⁻¹
- Kd [4]: 0.053 nM
- koff [4]: 0.000125 s⁻¹
- kon [4]: 2.38e+06 M⁻¹ s⁻¹
- ND50 (nM), TF-1 cell proliferation bioassay [5]: 1.25 nM
- Kd [2]: 0.095 nM
B4: A1Y100B TrpL1 (antibody, human IgG1, kappa, V domains shown)
VH: B1 VH with E102D, Y106W
VL: B1 VL
notes: CDRH3 variant of A1L1

- Kd [1]: 0.256 nM
- Kd [2]: 0.307 nM
B5: A1H100A ArgL1 (antibody, human IgG1, kappa, V domains shown)
VH: B1 VH with E102D, H105R
VL: B1 VL
notes: CDRH3 variant of A1L1

- Kd [1]: 0.158 nM
- Kd [2]: 0.211 nM
B6: A1H100A ThrL1 (antibody, human IgG1, kappa, V domains shown)
VH: B1 VH with E102D, H105T
VL: B1 VL
notes: CDRH3 variant of A1L1

- Kd [1]: 0.075 nM
- Kd [3]: 0.049 nM
- koff [3]: 5.58e-05 s⁻¹
- kon [3]: 1.15e+06 M⁻¹ s⁻¹
- Kd [4]: 0.043 nM
- koff [4]: 4.21e-05 s⁻¹
- kon [4]: 989000 M⁻¹ s⁻¹
- ND50 (nM), TF-1 cell proliferation bioassay [5]: 1.1 nM
- Kd [2]: 0.073 nM
B7: A1Y100B IleL1 (antibody, human IgG1, kappa, V domains shown)
VH: B1 VH with E102D, Y106I
VL: B1 VL
notes: CDRH3 variant of A1L1

- Kd [1]: 0.112 nM
- Kd [2]: 0.152 nM
B8: A1H100A ValL1 (antibody, human IgG1, kappa, V domains shown)
VH: B1 VH with E102D, H105V
VL: B1 VL
notes: CDRH3 variant of A1L1

- Kd [1]: 0.075 nM
- Kd [3]: 0.031 nM
- koff [3]: 3e-05 s⁻¹
- kon [3]: 960000 M⁻¹ s⁻¹
- Kd [4]: 0.032 nM
- koff [4]: 2.58e-05 s⁻¹
- kon [4]: 810000 M⁻¹ s⁻¹
- ND50 (nM), TF-1 cell proliferation bioassay [5]: 0.92 nM
- Kd [2]: 0.083 nM
B9: A1Y100B AlaL1 (antibody, human IgG1, kappa, V domains shown)
VH: B1 VH with E102D, Y106A
VL: B1 VL
notes: CDRH3 variant of A1L1

- Kd [2]: 0.172 nM
B10: A1H100A AlaL1 (antibody, human IgG1, kappa, V domains shown)
VH: B1 VH with E102D, H105A
VL: B1 VL
notes: CDRH3 variant of A1L1

- Kd [1]: 0.683 nM
- Kd [2]: 0.618 nM
B11: A1Y97PheL1 (antibody, human IgG1, kappa, V domains shown)
VH: B1 VH with Y101F, E102D
VL: B1 VL
notes: CDRH3 variant of A1L1

- Kd [1]: 0.195 nM
- Kd [2]: 0.278 nM
B12: A1H100A GlnL1 (antibody, human IgG1, kappa, V domains shown)
VH: B1 VH with E102D, H105Q
VL: B1 VL
notes: CDRH3 variant of A1L1

- Kd [2]: 0.216 nM
B13: A1S95TrpL1 (antibody, human IgG1, kappa, V domains shown)
VH: B1 VH with S99W, E102D
VL: B1 VL
notes: CDRH3 variant of A1L1

- Kd [1]: 0.11 nM
- Kd [2]: 0.195 nM
B14: A1H100A GluL1 (antibody, human IgG1, kappa, V domains shown)
VH: B1 VH with E102D, H105E
VL: B1 VL
notes: CDRH3 variant of A1L1

- Kd [6]: < 0.0311 nM
- koff [6]: < 1e-05 s⁻¹
- kon [6]: 321000 M⁻¹ s⁻¹
- Kd [7]: 0.093 nM
- koff [7]: 7.18e-05 s⁻¹
- kon [7]: 775000 M⁻¹ s⁻¹
B15: BPC3214 (bispecific antibody, human IgG1, kappa)
heavy: not shown
light: DIQMTQSPSSLSASVGDRVTITCRSSQNIVHINGNTYLEWYQQKPGKAPKLLIYKISDRFSGVPSRFSGSGSGTDFTLTISSLQPEDFATYYCFQGSHVPWTFGQGTKLEIKRTVAAPSVFIFPPSDEQLKSGTASVVCLLNNFYPREAKVQWKVDNALQSGNSQESVTEQDSKDSTYSLSSTLTLSKADYEKHKVYACEVTHQGLSSPVTKSFNRGEC
notes: mAbdAb with the re-humanised light chain P0

- Kd [6]: 0.00955 nM
- koff [6]: 3.13e-06 s⁻¹
- kon [6]: 328000 M⁻¹ s⁻¹
- Kd [7]: 0.064 nM
- koff [7]: 5.23e-05 s⁻¹
- kon [7]: 822000 M⁻¹ s⁻¹
B16: BPC3215 (bispecific antibody, human IgG1, kappa)
heavy: not shown
light: B15 light with I2V, Q3L
notes: mAbdAb with the re-humanised light chain P1

- Kd [8]: 0.096 nM
- koff [8]: 0.000416 s⁻¹
- kon [8]: 4.34e+06 M⁻¹ s⁻¹
- Kd [9]: 0.152 nM
- koff [9]: 0.000455 s⁻¹
- kon [9]: 3e+06 M⁻¹ s⁻¹
B17: BPC1090 (bispecific antibody, human IgG1, kappa)
heavy: not shown
light: DIVMTQSPLSLPVTPGEPASISCRSSQNIVHINGNTYLEWYLQKPGQSPRLLIYKISDRFSGVPDRFSGSGSGTDFTLKISRVEADDVGIYYCFQGSHVPWTFGQGTKLEIKRTVAAPSVFIFPPSDEQLKSGTASVVCLLNNFYPREAKVQWKVDNALQSGNSQESVTEQDSKDSTYSLSSTLTLSKADYEKHKVYACEVTHQGLSSPVTKSFNRGEC
notes: mAbdAb; dAb DOM9-155-154 with Kabat 89 G; also called 829H-(TVAAPS)2GS-154 (89G)

- Kd [8]: 0.037 nM
- koff [8]: 0.000111 s⁻¹
- kon [8]: 2.98e+06 M⁻¹ s⁻¹
- Kd [9]: 0.031 nM
- koff [9]: 0.000104 s⁻¹
- kon [9]: 3.37e+06 M⁻¹ s⁻¹
B18: BPC1111 (bispecific antibody, human IgG1, kappa)
heavy: not shown
light: B17 light
notes: mAbdAb; dAb Kabat 89 E; also called 829H-(TVAAPS)2GS-154 (89E)

- Kd [8]: 0.168 nM
- koff [8]: 0.00102 s⁻¹
- kon [8]: 6.05e+06 M⁻¹ s⁻¹
- Kd [9]: 0.244 nM
- koff [9]: 0.000966 s⁻¹
- kon [9]: 3.96e+06 M⁻¹ s⁻¹
B19: BPC1091 (bispecific antibody, human IgG1, kappa)
heavy: not shown
light: B17 light
notes: mAbdAb; dAb Kabat 89 S; also called 829H-(TVAAPS)2GS-154 (89S)

- Kd [8]: 2.08 nM
- koff [8]: 0.00304 s⁻¹
- kon [8]: 1.46e+06 M⁻¹ s⁻¹
- Kd [9]: 1.95 nM
- koff [9]: 0.00373 s⁻¹
- kon [9]: 1.91e+06 M⁻¹ s⁻¹
B20: BPC1094 (bispecific antibody, human IgG1, kappa)
heavy: not shown
light: B17 light
notes: mAbdAb; dAb Kabat 89 A; also called 829H-(TVAAPS)2GS-154 (89A)

- Kd [8]: 4.69 nM
- koff [8]: 0.0318 s⁻¹
- kon [8]: 6.78e+06 M⁻¹ s⁻¹
- Kd [9]: 5.76 nM
- koff [9]: 0.0144 s⁻¹
- kon [9]: 2.5e+06 M⁻¹ s⁻¹
B21: BPC1095 (bispecific antibody, human IgG1, kappa)
heavy: not shown
light: B17 light
notes: mAbdAb; dAb Kabat 89 T; also called 829H-(TVAAPS)2GS-154 (89T)

- Kd [8]: 1.71 nM
- koff [8]: 0.00389 s⁻¹
- kon [8]: 2.27e+06 M⁻¹ s⁻¹
- Kd [9]: 1.79 nM
- koff [9]: 0.00534 s⁻¹
- kon [9]: 2.98e+06 M⁻¹ s⁻¹
B22: BPC1092 (bispecific antibody, human IgG1, kappa)
heavy: not shown
light: B17 light
notes: mAbdAb; dAb Kabat 89 H; also called 829H-(TVAAPS)2GS-154 (89H)
